From publication PMC8932546 (The Journal of Experimental Medicine, 2022) come the findings set out here.

To fix the notation:
B1: 10-1074 IgG (antibody, V domains shown)
VH: QVQLQESGPGLVKPSETLSVTCSVSGDSMNNYYWTWIRQSPGKGLEWIGYISDRESATYNPSLNSRVVISRDTSKNQLSLKLNSVTPADTAVYYCATARRGQRIYGVVSFGEFFYYYSMDVWGKGTTVTVSS
VL: LSVALGETARISCGRQALGSRAVQWYQHRPGQAPILLIYNNQDRPSGIPERFSGTPDINFGTRATLTISGVEAGDEADYYCHMWDSRSGFSWSFGGATRLTVL
B2: 7-269 expressed as recombinant IgG (antibody, V domains shown)
VH: QMQLVESGGGVVQPGRSLRLSCAASRFDFNRFGMHWVRQAPGKGLEWVAYMSYDGGDRYYADSVKGRFTISRDNSKSTLHLQMDSLRPEDTAVYYCAKDDILGDCSTSHCYWGYYYQGMDVWGHGTTVTVSS
VL: EIVMTQSPDTLSVSPGERVTLSCRASQSVGSNLVWYQQKPGQSTRVLIYGASTRAATVPARFSGGGSGTEFTLTISSVQSEDFAVYYCYHYNNWPRGSFGQGTKLEIK
B3: BG18 IgG (antibody, V domains shown)
VH: QVQLRESGPGLVKPSETLSLSCTVSQDSRPSDHSWTWVRQSPGKALEWIGDIHYNGATTYNPSLRSRVRIELDQSIPRFSLKMTSMTAADTGMYYCARNAIRIYGVVALGEWFHYGMDVWGQGTAVTVSS
VL: SSELTQPPSVSVSPGQTARITCSGAPLTSRFTYWYRQKPGQAPVLIISRSSQRSSGWSGRFSASWSGTTVTLTIRGVQADDEADYYCQSSDTSDSYKMFGGGTKLTVL

For the assay, the target named is YU2 gp120 (HIV-1 clade B, isolate YU2, UniProt P35961). In words: ELISA.
YU2 gp120, sequence (P35961 whole entry, looked up): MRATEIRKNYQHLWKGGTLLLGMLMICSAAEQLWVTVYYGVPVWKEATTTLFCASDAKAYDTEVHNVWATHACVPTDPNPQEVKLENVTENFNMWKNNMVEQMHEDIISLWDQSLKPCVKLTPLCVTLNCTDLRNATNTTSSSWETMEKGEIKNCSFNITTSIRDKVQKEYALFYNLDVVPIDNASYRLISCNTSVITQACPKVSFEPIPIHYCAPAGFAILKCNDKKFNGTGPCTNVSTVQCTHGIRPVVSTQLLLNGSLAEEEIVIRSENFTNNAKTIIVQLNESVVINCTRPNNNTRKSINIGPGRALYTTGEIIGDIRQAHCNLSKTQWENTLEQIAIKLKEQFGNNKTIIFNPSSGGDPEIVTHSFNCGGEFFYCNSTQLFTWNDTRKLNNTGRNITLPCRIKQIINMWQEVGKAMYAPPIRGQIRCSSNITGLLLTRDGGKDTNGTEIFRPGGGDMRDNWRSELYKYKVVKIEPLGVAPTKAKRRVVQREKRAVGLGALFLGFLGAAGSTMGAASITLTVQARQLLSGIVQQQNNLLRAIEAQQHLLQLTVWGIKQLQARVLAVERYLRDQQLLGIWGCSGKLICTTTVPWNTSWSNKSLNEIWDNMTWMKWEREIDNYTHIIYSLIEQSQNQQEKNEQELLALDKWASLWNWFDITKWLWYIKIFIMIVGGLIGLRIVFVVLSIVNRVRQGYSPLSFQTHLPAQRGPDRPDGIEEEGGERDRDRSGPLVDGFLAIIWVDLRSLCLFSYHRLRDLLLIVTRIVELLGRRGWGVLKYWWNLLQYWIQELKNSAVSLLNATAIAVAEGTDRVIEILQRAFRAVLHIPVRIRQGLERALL
On to B1, for which the binding result was “binds”.

On to B2, for which the binding result is recorded as “binds”.

Regarding B3, the binding result is “binds”.
